In EP3916006A1:

Legend:
GPR93 = GPR93 (UniProt Q149R9); assay: cell-based or functional assay
calcium sensing receptor = calcium sensing receptor (UniProt Q9QY96); assay: cell-based or functional assay
Chain of UniProt Q9QY96 (Q9QY96 20-1079 limits assumed): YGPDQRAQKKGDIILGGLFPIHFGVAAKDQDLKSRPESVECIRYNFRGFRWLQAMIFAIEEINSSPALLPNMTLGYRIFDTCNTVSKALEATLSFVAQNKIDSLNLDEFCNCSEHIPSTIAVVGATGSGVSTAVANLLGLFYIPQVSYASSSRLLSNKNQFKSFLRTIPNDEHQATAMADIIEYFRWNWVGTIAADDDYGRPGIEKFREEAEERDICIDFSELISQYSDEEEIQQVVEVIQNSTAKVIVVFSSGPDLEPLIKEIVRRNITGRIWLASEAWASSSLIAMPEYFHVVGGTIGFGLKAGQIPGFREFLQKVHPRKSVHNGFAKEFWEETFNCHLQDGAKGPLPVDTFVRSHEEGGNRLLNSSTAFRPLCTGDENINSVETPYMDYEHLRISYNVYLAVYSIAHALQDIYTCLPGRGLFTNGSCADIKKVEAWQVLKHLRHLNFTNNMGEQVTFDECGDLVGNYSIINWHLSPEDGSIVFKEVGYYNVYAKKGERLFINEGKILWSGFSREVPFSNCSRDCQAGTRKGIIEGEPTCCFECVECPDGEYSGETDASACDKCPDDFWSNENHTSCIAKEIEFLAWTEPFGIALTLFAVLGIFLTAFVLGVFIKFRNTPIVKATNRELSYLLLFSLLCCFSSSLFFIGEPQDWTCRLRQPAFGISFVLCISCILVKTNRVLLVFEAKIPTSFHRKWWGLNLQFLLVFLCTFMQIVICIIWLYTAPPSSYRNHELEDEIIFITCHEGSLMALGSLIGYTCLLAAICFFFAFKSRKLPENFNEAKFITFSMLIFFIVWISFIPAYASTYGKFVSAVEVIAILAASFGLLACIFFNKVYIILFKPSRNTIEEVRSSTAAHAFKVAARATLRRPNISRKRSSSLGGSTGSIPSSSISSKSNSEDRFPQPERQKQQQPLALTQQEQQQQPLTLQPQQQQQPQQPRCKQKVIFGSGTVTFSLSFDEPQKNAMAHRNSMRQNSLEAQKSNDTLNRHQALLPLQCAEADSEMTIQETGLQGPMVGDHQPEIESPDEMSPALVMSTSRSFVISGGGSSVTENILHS

Chain of UniProt Q149R9 (Q149R9 whole entry): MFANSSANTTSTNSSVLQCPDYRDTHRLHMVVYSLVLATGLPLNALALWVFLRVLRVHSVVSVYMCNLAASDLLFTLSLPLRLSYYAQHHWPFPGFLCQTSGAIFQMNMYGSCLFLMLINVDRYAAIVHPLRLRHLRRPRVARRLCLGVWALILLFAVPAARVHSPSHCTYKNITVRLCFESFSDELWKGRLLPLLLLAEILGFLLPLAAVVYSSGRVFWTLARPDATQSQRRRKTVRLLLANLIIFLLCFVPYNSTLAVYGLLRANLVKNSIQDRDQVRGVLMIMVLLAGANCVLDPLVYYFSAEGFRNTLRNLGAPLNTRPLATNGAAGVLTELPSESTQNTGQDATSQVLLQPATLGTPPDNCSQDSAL

synthetic peptide SEQ ID NO: 5 90RYLGYLE96, derived from αs1-casein
CCK secretion by STC-1 cells (ELISA), peptide at 0.125 mM with TC LPA5 4 at 4 µM (198 pM with vehicle) (GPR93): 111 pM
CCK secretion by STC-1 cells (ELISA), peptide at 0.125 mM with NPS2143 at 6 µM (198 pM with vehicle) (calcium sensing receptor): 88 pM
